Data from US20070066547.
pIC50: −log10 of the molar value.

Tests used:
[1] = system: HIV-1 Ba-L virus (gp120) (Human immunodeficiency virus 1 (Ba-L)); experiment: cell_activity; conditions: 2'-F pyrimidines (U, C)
[2] = system: HIV-1 Ba-L break-through clones after B4 selection (gp120) (Human immunodeficiency virus 1 (Ba-L)); experiment: cell_activity; conditions: 2'-F pyrimidines (U, C); 100 nM aptamer; all four break-through clones neutralised
[3] = system: gp120 envelope glycoprotein, HIV-1 Ba-L (SU) (Human immunodeficiency virus 1 (Ba-L)); experiment: competition; conditions: 2'-F pyrimidines (U, C); at highest aptamer concentration, no CD4; 48d inhibited at nM with CD4; CG10 and sCD4 binding not inhibited

Sequence | activity (log10 IU/ml reduction) ([1]; 100 nM aptamer, PBMC TCID50) | pIC50 ([1]; neutralisation in human PBMC, about 5 log10 at 100 nM) | activity (log10 IU/ml reduction) [2] | binding signal (% inhibition of mAb 17b binding) [3]
AUGACGUACCCGCACAAGCCACCACAAGUCUUAAUCGCGCCACCCUUGC [B84] | > 4 |  |  | 
GAGCGGUUAAGGGAGAUUUAGGCAGCAGCUUGGACAGUGUAUCGGCUGAG [B4] |  | > 9.00 | > 4 | 50
